# Molecular target: HLA-DPB1 (from the recombinant plasmid pEGFP-N2-HLA-DPB1, expressed in 293T cells) (human) (UniProt P04440)
# Experiment: flow cytometry on cells
# Chain of UniProt P04440 (P04440 30-225): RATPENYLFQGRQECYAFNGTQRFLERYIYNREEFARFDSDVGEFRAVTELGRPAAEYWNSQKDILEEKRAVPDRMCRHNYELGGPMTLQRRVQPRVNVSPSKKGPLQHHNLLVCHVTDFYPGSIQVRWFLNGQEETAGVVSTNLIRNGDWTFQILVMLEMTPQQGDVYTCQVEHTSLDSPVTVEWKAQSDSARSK
substance,measurement,value
gp42/gHgL complex protein (from UniProt P03205 33-223; P03231 19-706; P03212 23-137),HLA-DP+ gp42+ cells (%) at 20 ug gp42 protein,12.4%
same,HLA-DP+ gp42+ cells (%) at 40 ug gp42 protein,18.4%
same,HLA-DP+ gp42+ cells (%) at 80 ug gp42 protein,27.1%
same,"HLA-DPB1+ gp42+ cells (%), HLA-DPB1 recombinant plasmid group",28.9%
same,gp42+ cells (%) at 20 ug gp42 protein,14%
same,gp42+ cells (%) at 40 ug gp42 protein,20.1%
same,gp42+ cells (%) at 80 ug gp42 protein,29.3%
same,"gp42+ cells (%), HLA-DPB1 recombinant plasmid group",28.6%
